{"source": "patent US10100120B2", "about": "“Antibody which specifically binds to human CRTH2” (KYOWA HAKKO KIRIN CO., LTD, priority 2015, dated 2018)", "molecules": {"B1": {"name": "LV0HV1: humanized Lym2 antibody, VL LV0 (SEQ ID NO: 33), VH HV1 (SEQ ID NO: 51) (antibody, V domains shown)", "VH": "EVQLVESGGGVVQPGRSLRLSCAASGFTFSNYYMAWVRQAPGKGLEWVATISYDGSSTYYRDSVKGRFTISRDNAKNSLYLQMNSLRAEDTATYYCARHRGYYYSGAGYFDYWGQGTMVTVSS", "VL": "DIVMTQTPLSLPVTPGESASISCRSSQSLEYSDGYTYLEWYLQKPGQSPQVLIYGVSNRFSGVPDRFSGSGSGTDFTLKISRVEAEDVGVYYCFQATHDPLTFGQGTKLEIK"}, "B2": {"name": "Lym2 antibody: rat anti-human CRTH2 monoclonal antibody from hybridoma Lym2, rat IgG2b; VH SEQ ID NO: 17, VL SEQ ID NO: 19 (antibody, listed as Rattus norvegicus, V domains shown)", "VH": "B1 VH with V11L, L18M, R19K, G42K, N77S, S78T, N84D, A88S, T117V", "VL": "DVVLTQTPVSLSVTLGDQASISCRSSQSLEYSDGYTYLEWYLQKPGQSPQVLIYGVSNRFSGVPDRFIGSGSGTDFTLKISRVEPEDLGVYYCFQATHDPLTFGSGTKLEIK"}}, "key": {"human eosinophils [1]": {"test_system": "human eosinophils", "test": "Eosinophil depletion (cytotoxic) activity in human peripheral blood cells, flow cytometry", "type": "cell-based", "details": "37° C., 20 hours", "procedure": "Human peripheral blood collected by adding a heparin sodium injection liquid was centrifuged at 4° C. and 1500 rpm for 30 minutes, and the plasma was recovered.\nAfter the plasma was recovered, PBS (NACALAI TESQUE, Inc.) was added to the pellet containing the red blood up to the original volume of blood and the pellet was suspended. Next, to 1 mL of the suspension, 10 mL of hemolyzing solution [solution obtained by diluting 10×RBC Lysis buffer (eBioscience) 10 times with sterile water] was added to be mixed by inversion. The resultant was allowed to stand at room temperature for 10 minutes and centrifuged at room temperature and 1500 rpm for 5 minutes and washed twice with PBS after the supernatant was removed therefrom.\nThereafter, the cell pellet was suspended with the recovered plasma and the cells were seeded in a 48-well plate at 300 μL/well, each of chLym2, humanized Lym2 antibodies LV0HV0, LV0HV1, and LV0HV2a, or an isotype control antibody [IgG1 antibody prepared according to the method described in Example 5 using a vector encoding an anti-2,4-dinitrophenol (DNP) IgG1 antibody described in Clin Cancer Res 2005, 11(8), 3126 to 3135 (hereinafter, referred to as anti-DNP IgG1 antibody)] were added at each final concentrations of 1000, 100, 33, 11, 3.7, 1.2, 0.4, and 0.01 ng/mL to cause a reaction in a 5% CO2 incubator at 37° C. for 20 hours.\nAfter the reaction, the cell fluid in each well was recovered, 10 mL of SM was added thereto, 200 μL per sample of CountBright Absolute Counting Beads, for flow cytometry (Molecular Probes) was added as control beads, and the fluid was centrifuged at 4° C. and 2000 rpm for 10 minutes, and then the supernatant was removed. The resultant was washed twice with SM, 10000 μg/mL of IgG from human serum (Sigma-Aldrich Co. LLC) diluted with SM was added at 300 μL/sample and suspended to cause a reaction at 4° C. for 30 minutes. […]\nThe cells were washed twice with SM, suspended by SM containing 1% of 7-AAD Staining Solution (BD Biosciences), allowed to stand at 4° C. for 10 minutes, and the fluorescent intensity was analyzed by flow cytometry (BD Biosciences, FACS CantoII).\nHuman eosinophils were detected as 7-AAD negative siglec8-PE positive fractions in granulocyte fractions of FSC-SSC deployment. Human basophils were detected as 7-AAD negative fractions, CD123-PC-Cy7 positive fractions, FcεRI-APC positive fractions in lymphocyte fractions of FSC-SSC deployment. The cell depletion activity was evaluated by analyzing the count number of each cell per a certain number of CountBright. […]"}, "human eosinophils [2]": {"test_system": "human eosinophils", "test": "Agonist activity using shape change of human eosinophils as index (Example 20)", "type": "cell-based", "details": "0 to 10 μg/mL, 1 hour; FIG. 17", "procedure": "In the same experimental system as in Example 19 described above, rat anti-human CRTH2 antibody Lym2 at each final concentration of 0, 0.01, 0.1, 1, and 10 μg/mL was added and a reaction was performed for 1 hour and shape change of eosinophils was analyzed."}}, "note": "Changes are numbered by the printed parent chain."}
{"molecule": "B1", "values": [{"measurement": "cytotoxic activity against eosinophils", "setting": "human eosinophils [1]; Example 8, 0.01-1000 ng/mL, FIG. 3", "result": "comparable to the chimeric Lym2 antibody chLym2"}, {"measurement": "removal of eosinophils", "setting": "human eosinophils [1]; Example 14, 0.1-1000 ng/mL, FIG. 11", "result": "removed"}]}
{"molecule": "B2", "values": [{"measurement": "shape change of eosinophils caused by antibody (agonist activity)", "setting": "human eosinophils [2]", "result": "doesn't cause the shape change"}]}
